Data reported in paper PMC10998858, “Structure and mechanisms of transport of human Asc1/CD98hc amino acid transporter” (Nature Communications, 2024).

Target: T1, human CD98hc (SLC3A2), heavy subunit of the Asc1/CD98hc heterodimer (human, UniProt P08195-2 1-529, N-glycosylation at residues 264, 280, 323 and 405; disulfide bridge from Cys 109 to Cys 154 of Asc1)
T1 construct: CD98hc (SLC3A2), human; residues 61-529 were modelled and the disulfide cysteine is numbered C109, which fits the 529-residue isoform (isoform f is named only for the HeLa construct); also called heavy chain; ancillary subunit; source: HEK293-6E, co-transfected with Asc1, purified as heterodimer in digitonin (Ni-NTA, size exclusion chromatography)
T1 sequence: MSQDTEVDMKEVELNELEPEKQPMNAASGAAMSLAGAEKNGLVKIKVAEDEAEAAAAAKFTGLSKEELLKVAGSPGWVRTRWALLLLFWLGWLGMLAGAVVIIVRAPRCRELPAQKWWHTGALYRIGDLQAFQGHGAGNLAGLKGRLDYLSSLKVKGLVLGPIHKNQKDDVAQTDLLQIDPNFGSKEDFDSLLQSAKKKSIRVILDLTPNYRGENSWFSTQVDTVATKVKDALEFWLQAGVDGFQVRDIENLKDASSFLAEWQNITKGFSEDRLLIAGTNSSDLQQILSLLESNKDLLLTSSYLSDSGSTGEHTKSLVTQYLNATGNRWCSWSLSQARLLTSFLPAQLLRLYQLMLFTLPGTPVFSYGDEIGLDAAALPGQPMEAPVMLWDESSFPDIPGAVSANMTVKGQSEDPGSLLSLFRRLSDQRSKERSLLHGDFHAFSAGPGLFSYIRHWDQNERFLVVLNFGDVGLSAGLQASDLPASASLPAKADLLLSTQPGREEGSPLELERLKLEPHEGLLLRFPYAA
Test: cryo-EM structure; heterodimer co-expressed in HEK293-6E, solubilised in 1% digitonin, purified by Ni-NTA and Superdex200 in 20 mM Tris-HCl pH 8.0, 150 mM NaCl, 0.1% digitonin; 1.2-1.5 mg/ml, 10 mM D-Ser added before vitrification (no ligand density found)
Conditions: both partners purified

B1: human Asc1 (SLC7A10), light subunit of the Asc1/CD98hc heterodimer (natural protein)
chain: MAGHTQQPSGRGNPRPAPSPSPVPGTVPGASERVALKKEIGLLSACTIIIGNIIGSGIFISPKGVLEHSGSVGLALFVWVLGGGVTALGSLCYAELGVAIPKSGGDYAYVTEIFGGLAGFLLLWSAVLIMYPTSLAVISMTFSNYVLQPVFPNCIPPTTASRVLSMACLMLLTWVNSSSVRWATRIQDMFTGGKLLALSLIIGVGLLQIFQGHFEELRPSNAFAFWMTPSVGHLALAFLQGSFAFSGWNFLNYVTEEMVDARKNLPRAIFISIPLVTFVYTFTNIAYFTAMSPQELLSSNAVAVTFGEKLLGYFSWVMPVSVALSTFGGINGYLFTYSRLCFSGAREGHLPSLLAMIHVRHCTPIPALLVCCGATAVIMLVGDTYTLINYVSFINYLCYGVTILGLLLLRWRRPALHRPIKVNLLIPVAYLVFWAFLLVFSFISEPMVCGVGVIIILTGVPIFFLGVFWRSKPKCVHRLTESMTHWGQELCFVVYPQDAPEEEENGPCPPSLLPATDKPSKPQ
modifications: disulfide bridge from Cys 154 to Cys 109 of CD98hc
notes: Asc1 (SLC7A10), human; residues 41-489 were modelled in the cryoEM map; The final construct has no GFP; a version with C-terminal eGFP was used only in preliminary trials; also called hAsc1; light chain; source: HEK293-6E, co-transfected with CD98hc, purified as heterodimer in digitonin (Ni-NTA, size exclusion chromatography); not shown: 6xHis, C-terminal, kept
B1: binds.
